The values that follow come from PMC9747329 (ACS chemical biology, 2022).

The target of test [1] is nLuc-PTHR1 (human parathyroid hormone receptor-1 with NanoLuc luciferase fused to the N-terminus) (human) (UniProt Q03431). Briefly: FRET or BRET. For orientation: Bioluminescence resonance energy transfer reports proximity on the nanometre scale.
The target is the same in test [2].
The next test addresses T1, nLuc-PTHR1 (Homo sapiens, UniProt Q03431).
T1 sequence (Q03431 27-593): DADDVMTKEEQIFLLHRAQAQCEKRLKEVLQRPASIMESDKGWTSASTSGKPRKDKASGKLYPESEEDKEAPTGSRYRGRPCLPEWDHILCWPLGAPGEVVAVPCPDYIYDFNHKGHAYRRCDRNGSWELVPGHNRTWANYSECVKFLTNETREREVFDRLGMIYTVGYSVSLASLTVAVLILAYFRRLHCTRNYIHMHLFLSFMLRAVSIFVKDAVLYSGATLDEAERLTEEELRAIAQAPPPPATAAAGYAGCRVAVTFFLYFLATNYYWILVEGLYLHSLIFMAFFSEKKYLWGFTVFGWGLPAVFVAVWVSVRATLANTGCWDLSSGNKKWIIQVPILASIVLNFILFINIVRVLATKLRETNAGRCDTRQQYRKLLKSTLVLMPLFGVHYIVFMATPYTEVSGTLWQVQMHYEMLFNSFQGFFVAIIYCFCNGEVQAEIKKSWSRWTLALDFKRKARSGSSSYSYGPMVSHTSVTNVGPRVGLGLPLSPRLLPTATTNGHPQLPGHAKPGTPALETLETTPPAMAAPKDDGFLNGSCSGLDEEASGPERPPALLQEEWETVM
The class given is binding. Particulars: for koff / kon: HEK293.

A further test addresses T2, WT-PTHR1 (Homo sapiens, UniProt Q03431).
T2 sequence (Q03431 27-593): T1 sequence (Q03431 27-593)
In words: GloSensor cAMP assay in GP2.3 cells. As to conditions: for Emax: HEK293, read-out: cAMP formation %Emax. The class given is cell-based. (cAMP levels reflect the balance of adenylyl cyclase and phosphodiesterase activity.)

Test [3] addresses nLuc-ΔECD-PTHR1 (truncated PTHR1 lacking most of the extracellular domain, preceded by NanoLuc luciferase) (human) (UniProt Q03431). Briefly: FRET or BRET.

Residues, ends and D or L forms follow the SMILES beside them. No end group written: not given here. *: point of attachment. X1 = CN(C)c1ccc2c(-c3cc(C(=O)*)ccc3C(=O)[O-])c3ccc(=[N+](C)C)cc-3oc2c1

One may read the Kd as a measure of binding affinity in units of concentration. Lower therefore signals tighter binding. As a reminder, the koff is the first-order rate constant of dissociation. Low readings indicate a long-lived complex, high ones a short-lived complex. Turning to PTH(1-34)-N33K^TMR (peptide), in test [1], the Kd was determined as 11 nM and the koff came out at 0.0043 s⁻¹.
The kon is the rate constant with which the complex forms. In test [2], “PTHrP[1-16] PTH[17-34] hybrid, Lys35(TMR) (peptide)” gave a cAMP formation (GloSensor): %Emax of 105% and a cAMP formation (GloSensor): EC50 of 0.48 nM. In addition, in test [1], the Kd amounted to 95 nM, the off-rate (koff) is 0.041 s⁻¹ and the kon came to 430000 M⁻¹ s⁻¹.
For orientation: Emax means the greatest response seen or fitted, relative to the assay's reference. On nLuc-PTHR1, `CC[C@H](C)[C@H](NC(=O)[C@H](CCCCNC(=O)c1ccc(C(=O)[O-])c(-c2c3ccc(=[N+](C)C)cc-3oc3cc(N(C)C)ccc23)c1)NC(=O)[C@H](C)NC(=O)[C@@H](NC(=O)[C@H](Cc1c[nH]cn1)NC(=O)[C@@H](NC(=O)[C@H](CCC(=O)O)NC(=O)[C@H](C)NC(=O)[C@@H](NC(=O)[C@H](CC(C)C)NC(=O)[C@H](Cc1c[nH]cn1)NC(=O)[C@H](Cc1c[nH]cn1)NC(=O)[C@H](CC(C)C)NC(=O)[C@H](Cc1ccccc1)NC(=O)[C@H](Cc1ccccc1)NC(=O)[C@H](CCCNC(=N)N)NC(=O)[C@H](CCCNC(=N)N)NC(=O)[C@H](CCCNC(=N)N)NC(=O)[C@H](CCSC)NC(=O)[C@H](CO)NC(=O)[C@H](CC(N)=O)NC(=O)[C@H](CC(C)C)NC(=O)[C@H](Cc1c[nH]cn1)NC(=O)[C@H](CCCCN)NC(=O)CNC(=O)[C@H](CC(C)C)NC(=O)[C@H](CC(N)=O)NC(=O)[C@H](Cc1c[nH]cn1)NC(=O)[C@H](CCSC)NC(=O)[C@H](CC(C)C)NC(=O)[C@H](CCC(N)=O)NC(=O)[C@@H](NC(=O)[C@H](CCC(=O)O)NC(=O)[C@H](CO)NC(=O)[C@@H](NC(=O)[C@@H](N)CO)C(C)C)[C@@H](C)CC)[C@@H](C)CC)[C@@H](C)CC)[C@@H](C)O)C(N)=O` [PTH[1-18] PTHrP[19-36]] (H-SVSEIQLMHNLGKHLNSMRRRFFLHHLIAEIHTAK(X1)I-NH2; N-terminus assumed) yielded a koff of 0.0079 ± 0.001 s⁻¹ and a kon of 320000 ± 70000 M⁻¹ s⁻¹. Moreover, the Emax at WT-PTHR1 amounted to 106 ± 1%.
Taken in the same sequence, the figures for `CC[C@H](C)[C@H](NC(=O)[C@H](CCCCNC(=O)c1ccc(C(=O)[O-])c(-c2c3ccc(=[N+](C)C)cc-3oc3cc(N(C)C)ccc23)c1)NC(=O)[C@H](C)NC(=O)[C@@H](NC(=O)[C@H](Cc1c[nH]cn1)NC(=O)[C@@H](NC(=O)[C@H](CCC(=O)O)NC(=O)[C@H](C)NC(=O)[C@@H](NC(=O)[C@H](CC(C)C)NC(=O)[C@H](Cc1c[nH]cn1)NC(=O)[C@H](Cc1c[nH]cn1)NC(=O)[C@H](CC(C)C)NC(=O)[C@H](Cc1ccccc1)NC(=O)[C@H](Cc1ccccc1)NC(=O)[C@H](CCCNC(=N)N)NC(=O)[C@H](CCCNC(=N)N)NC(=O)[C@H](CCCNC(=N)N)NC(=O)[C@H](CC(C)C)NC(=O)[C@H](CC(=O)O)NC(=O)[C@H](CCC(N)=O)NC(=O)[C@@H](NC(=O)[C@H](Cc1c[nH]cn1)NC(=O)[C@H](CCCCN)NC(=O)CNC(=O)[C@H](CC(C)C)NC(=O)[C@H](CC(N)=O)NC(=O)[C@H](Cc1c[nH]cn1)NC(=O)[C@H](CCSC)NC(=O)[C@H](CC(C)C)NC(=O)[C@H](CCC(N)=O)NC(=O)[C@@H](NC(=O)[C@H](CCC(=O)O)NC(=O)[C@H](CO)NC(=O)[C@@H](NC(=O)[C@@H](N)CO)C(C)C)[C@@H](C)CC)[C@@H](C)CC)[C@@H](C)CC)[C@@H](C)CC)[C@@H](C)O)C(N)=O` [PTH[1-14] PTHrP[15-36]] (H-SVSEIQLMHNLGKHIQDLRRRFFLHHLIAEIHTAK(X1)I-NH2; N-terminus assumed) were 0.0022 ± 0.0009 s⁻¹, 350000 ± 40000 M⁻¹ s⁻¹ and 106 ± 1%.
In test [1], LA-PTH(1-34)-35K^TMR (peptide) returned a Kd of 2.4 nM, a dissociation rate constant (koff) of 0.00056 s⁻¹ and a kon of 230000 M⁻¹ s⁻¹. In test [3], this molecule gave a Kd of 72 nM, a koff of 0.0097 s⁻¹ and an on-rate constant (kon) of 130000 M⁻¹ s⁻¹.
In test [1], PTH(1-34)K35^TMR, I5H variant (peptide) displayed a dissociation constant (Kd) of 104 nM, a dissociation rate constant (koff) of 0.071 s⁻¹ and a kon of 440000 M⁻¹ s⁻¹.
For the molecule “PTHrP(1-36): N-terminal fragment of parathyroid hormone-related protein, literature comparator [reference compound]”, the “KD with Ile5 relative to His5 at position 5 (fold lower)” value with nLuc-PTHR1 (pH 7.5, K35^TMR-labeled peptides) is ~ 5 fold.
In test [2], “PTH[1-16] PTHrP[17-36] hybrid, Lys35(TMR) (peptide)” had a cAMP formation (GloSensor): %Emax of 103% and a cAMP formation (GloSensor): EC50 of 0.79 nM. Besides, in test [1], the Kd is 3.4 nM, the off-rate (koff) came out at 0.0017 s⁻¹ and the kon was found to be 530000 M⁻¹ s⁻¹.
On to PTHrP(1-34)-His5-Ile-K35^TMR (peptide), for which, in test [1], the Kd stood at 5 nM. That is a single-digit nanomolar value.
With “PTH[1-18] PTHrP[19-36] hybrid, Lys35(TMR) (peptide)”, in test [2], the cAMP formation (GloSensor): %Emax came to 106% and the cAMP formation (GloSensor): EC50 turned out to be 0.99 nM. In addition, in test [1], the Kd turned out to be 26 nM, the dissociation rate constant (koff) was determined as 0.0079 s⁻¹ and the kon was 320000 M⁻¹ s⁻¹.
In test [2], “PTHrP[1-18] PTH[19-34] hybrid, Lys35(TMR) (peptide)” returned a cAMP formation (GloSensor): %Emax of 99% and a cAMP formation (GloSensor): EC50 of 0.16 nM.
In test [1], PTH(2-34)K35^TMR (peptide) returned a Kd of 21 nM, a dissociation rate constant (koff) of 0.0053 s⁻¹ and a kon of 250000 M⁻¹ s⁻¹.
In test [2], “PTH[1-12] PTHrP[13-36] hybrid, Lys35(TMR) (peptide)” returned a cAMP formation (GloSensor): %Emax of 107% and a cAMP formation (GloSensor): EC50 of 0.55 nM. In test [1], this molecule had a Kd of 4.4 nM and a koff of 0.0035 s⁻¹.
In test [1], PTH(3-34)K35^TMR (peptide) displayed a Kd of 27 nM, an off-rate constant (koff) of 0.0094 s⁻¹ and a kon of 340000 M⁻¹ s⁻¹.
In test [2], “PTHrP[1-12] PTH[13-34] hybrid, Lys35(TMR) (peptide)” had a cAMP formation (GloSensor): EC50 of 0.15 nM. Further, in test [1], the dissociation constant (Kd) turned out to be 49 nM, the koff stood at 0.029 s⁻¹ and the kon is 590000 M⁻¹ s⁻¹.
As to “PTH(2-34): N-terminally truncated analogue of PTH(1-34) (VSEIQLMHNLGKHLNSMERVEWLRKKLQDVHNF-NH2; UniProt P01270 33-65, looked up, fragment) [reference compound]”, the “EC50 for cAMP production relative to EC50 of PTH(1-34) (fold higher)” value with WT-PTHR1 (estimated for the D-peptide) is listed as ~ 10 fold.
In test [2], “PTH[1-14] PTHrP[15-36] hybrid, Lys35(TMR) (peptide)” had a cAMP formation (GloSensor): %Emax of 106% and a cAMP formation (GloSensor): EC50 of 0.89 nM. In test [1], this molecule yielded a Kd of 6.1 nM, an off-rate (koff) of 0.0022 s⁻¹ and a kon of 350000 M⁻¹ s⁻¹.
As to “PTH(3-34): N-terminally truncated analogue of PTH(1-34) (SEIQLMHNLGKHLNSMERVEWLRKKLQDVHNF-NH2; UniProt P01270 34-65, looked up, fragment) [reference compound]”, the “agonist activity, cAMP production via the PTHR1 (in words)” value in the test with WT-PTHR1 was “only minimal activity”.
In test [1], M-PTH(1-14)-15K^TMR (peptide) showed a Kd of 310 nM, a koff of 0.024 s⁻¹ and an on-rate constant (kon) of 77000 M⁻¹ s⁻¹. Also, in test [3], the Kd worked out at 106 nM, the off-rate constant (koff) was 0.018 s⁻¹ and the on-rate constant (kon) stood at 180000 M⁻¹ s⁻¹.
“AVAEIQLMHQRAKWIQDARRRAFLHKLIAEIHTA-NH2 [LA-PTH, reference compound]”: the “difference in KD between PTH and LA-PTH” value at nLuc-PTHR1 (direct-binding assay, K35^TMR peptides) is listed as ~ 5 fold.
As to “PTHrP[1-14] PTH[15-34] hybrid, Lys35(TMR) (peptide)”, in test [2], the cAMP formation (GloSensor): %Emax is 97% and the cAMP formation (GloSensor): EC50 was 0.39 nM. Also, in test [1], the Kd stood at 63 nM, the koff turned out to be 0.043 s⁻¹ and the kon is 680000 M⁻¹ s⁻¹.
For orientation: IC50 means the concentration at which inhibition is half-maximal. Read a low IC50 as inhibition by little substance. The molecule “LA-PTH (long-acting PTH), unlabeled (peptide)” gave a half-inhibitory concentration (IC50) in test [1] of 4.1 nM.
